Self-cleavage data for 167 variants are collected here from the RNAGym collection of RNA variant scans (doi:10.7554/elife.80360).

B1: HDV Ribozyme (parent)
chain: GGCCGGCAUGGUCCCAGCCUCCUCGCUGGCGCCGGCUGGGCAACAUUCCGAGGGGACCGUCCCCUCGGUAAUGGCGAAUGGGACCCA

This data set covers variants of B1. Nature of the data set: self-cleavage, relative activity (ratio to wild type); higher = more cleavage; co-transcriptional.
In the case of G10A U47A, the self-cleavage is 0.665.

Turning to G10A U47C, the self-cleavage was determined as 0.554.

Take G10A C33U: the self-cleavage amounted to 0.554.

Turning to G10A C33A, the self-cleavage amounted to 0.111.

On to G10A C33G, for which the self-cleavage is 0.0767.

As to G10A U65C, the self-cleavage turned out to be 0.769.

As for G10A C86A, the self-cleavage was 0.82.

For the variant G10A C86G, the self-cleavage stood at 0.639.

In the case of U9G G76C, the self-cleavage came out at 1.14.

U9G G76U: the self-cleavage turned out to be 1.13.

U9G G76A: the self-cleavage was 1.23.

Turning to G10A G39U, the self-cleavage stood at 0.293.

In the case of U9G U47C, the self-cleavage turned out to be 1.04.

U9G G81C: the self-cleavage is 0.443.

In the case of G10A U20A, the self-cleavage was 0.0831.

G10A C63G: the self-cleavage was found to be 0.566.

Consider U9G G74U, for which the self-cleavage is 0.415.

With G10A A77G, the self-cleavage turned out to be 0.53.

As for G10A U37C, the self-cleavage is 0.695.

Turning to G10A U37G, the self-cleavage stood at 0.198.

In the case of G10A U37A, the self-cleavage was 0.0944.

As for U9G G35U, the self-cleavage was determined as 0.653.

Regarding U9G G35A, the self-cleavage was 0.782.

Regarding G10A C49A, the self-cleavage amounted to 0.665.

In the case of G10A C49U, the self-cleavage was determined as 0.831.

As to U9G G54U, the self-cleavage amounted to 0.831.

For the variant G10A A42G, the self-cleavage is 0.251.

G10A A42U: the self-cleavage came to 0.244.

For G10A A42C, the self-cleavage stood at 0.0875.

As to G10A G40C, the self-cleavage amounted to 0.302.

For G10A G17U, the self-cleavage stood at 0.525.

For the variant G10A G17C, the self-cleavage was 0.341.

On to G10A G74U, for which the self-cleavage was determined as 0.257.

Regarding G10A G74A, the self-cleavage was found to be 0.101.

For the variant U9G G80U, the self-cleavage was determined as 0.289.

Regarding U9G G80A, the self-cleavage was determined as 0.516.

On to G10A C41G, for which the self-cleavage came to 0.68.

Take G10A C41U: the self-cleavage stood at 0.607.

With G10A C58G, the self-cleavage was found to be 0.939.

Regarding U9G G39U, the self-cleavage amounted to 0.807.

Turning to U9G G39C, the self-cleavage came to 0.196.

Take G10A C48A: the self-cleavage is 0.739.

G10A C48G: the self-cleavage is 0.671.

Take G10A A16U: the self-cleavage was 0.929.

As for G10A A16C, the self-cleavage was determined as 0.867.

G10A A16G: the self-cleavage stood at 0.584.

U9G U12A: the self-cleavage is 1.11.

As for U9G U12G, the self-cleavage amounted to 1.11.

As to G10A C85G, the self-cleavage was determined as 0.892.

On to U9G U37A, for which the self-cleavage was 0.

Regarding U9G G53C, the self-cleavage was 0.939.

Take G10A G11C: the self-cleavage is 0.256.

Take G10A G11U: the self-cleavage was 0.095.

As to G10A C61G, the self-cleavage is 0.844.

As for G10A C61A, the self-cleavage was determined as 0.674.

As for G10A A83G, the self-cleavage was determined as 0.258.

On to G10A A56U, for which the self-cleavage came out at 0.845.

For the variant G10A G68C, the self-cleavage is 0.453.

For the variant G10A G68U, the self-cleavage came out at 0.562.

For the variant G10A G68A, the self-cleavage stood at 0.604.

Take G10A C64U: the self-cleavage was determined as 0.661.

As for U9G G73U, the self-cleavage came to 0.0831.

For G10A G38C, the self-cleavage is 0.0692.

Turning to G10A G38A, the self-cleavage stood at 0.0607.

As to G10A, the self-cleavage came to 0.779.

Take G10C: the self-cleavage was 0.935.

As to G10A U69G, the self-cleavage is 0.554.

On to G10A U69A, for which the self-cleavage came to 0.677.

For the variant G10A A87U, the self-cleavage was found to be 0.779.

As for G10A A70U, the self-cleavage was 0.533.

With G10A G52C, the self-cleavage worked out at 0.812.

Consider G10A G52U, for which the self-cleavage turned out to be 0.838.

On to G10A C13G, for which the self-cleavage stood at 0.104.

For the variant G10A G80C, the self-cleavage is 0.131.

Turning to G10A G80A, the self-cleavage was determined as 0.11.

For the variant G10A G80U, the self-cleavage came to 0.145.

As to U9G G55C, the self-cleavage is 0.665.

For the variant U9G G55U, the self-cleavage turned out to be 1.05.

As to G10A G31C, the self-cleavage turned out to be 0.198.

Turning to G10A G31U, the self-cleavage came out at 0.226.

With G10A C32U, the self-cleavage was 0.652.

As to G10A C32A, the self-cleavage was 0.153.

G10A C32G: the self-cleavage stood at 0.0966.

G10A G55U: the self-cleavage came out at 0.698.

Regarding G10A G55A, the self-cleavage is 0.831.

Consider G10A U60G, for which the self-cleavage is 0.748.

Take G10A U79A: the self-cleavage was 0.302.

With G10A U79C, the self-cleavage came out at 0.0882.

Take G10A A78C: the self-cleavage came to 0.113.

Turning to G10A A78U, the self-cleavage stood at 0.0382.

For the variant U9G G59U, the self-cleavage was 1.06.

Consider U9G G59A, for which the self-cleavage was determined as 1.16.

On to G10A G73C, for which the self-cleavage worked out at 0.19.

Consider U9G U20A, for which the self-cleavage is 0.

On to U9G G50C, for which the self-cleavage is 1.01.

On to G10A G25U, for which the self-cleavage was found to be 0.0678.

As for G10A C21G, the self-cleavage was determined as 0.126.

As to G10A C21A, the self-cleavage was 0.

Turning to G10A C21U, the self-cleavage is 0.0453.

Consider U9G G67U, for which the self-cleavage stood at 1.25.

With U9G U79C, the self-cleavage was 0.748.

Turning to U9G U79G, the self-cleavage was determined as 0.923.

G10A A43C: the self-cleavage was found to be 0.176.

Take U9G U65C: the self-cleavage was determined as 1.17.

With U9G U65A, the self-cleavage turned out to be 1.27.

In the case of G10A G35U, the self-cleavage was determined as 0.499.

Take G10A G35C: the self-cleavage was found to be 0.1.

Take G10A G35A: the self-cleavage was 0.281.

Take G10A G53U: the self-cleavage worked out at 0.857.

Regarding G10A G53A, the self-cleavage amounted to 0.841.

For the variant G10A G53C, the self-cleavage was 0.742.

As for U9G U23A, the self-cleavage came out at 0.782.

Take U9G U23G: the self-cleavage is 0.95.

As for U9G U23C, the self-cleavage is 0.923.

For G10A G81C, the self-cleavage was 0.22.

Take G10A G81U: the self-cleavage turned out to be 0.0468.

As to G10A G81A, the self-cleavage came to 0.187.

As to G10A C36U, the self-cleavage is 0.396.

Consider G10A C36A, for which the self-cleavage is 0.0687.

For the variant G10A C19A, the self-cleavage is 0.0489.

Take G10A C19G: the self-cleavage was found to be 0.111.

For the variant G10A G50U, the self-cleavage worked out at 0.67.

As to G10A U12G, the self-cleavage was 0.

As for G10A U12A, the self-cleavage is 0.0733.

Turning to U9G G82U, the self-cleavage was determined as 0.767.

For U9G U46G, the self-cleavage worked out at 0.646.

Take U9G U46A: the self-cleavage was found to be 0.312.

On to U9G G38U, for which the self-cleavage turned out to be 0.

Take U9G G38C: the self-cleavage was determined as 0.302.

Consider G10A G82U, for which the self-cleavage was 0.36.

As for G10A G82A, the self-cleavage was determined as 0.176.

Turning to G10A G28A, the self-cleavage was 0.0336.

With G10A G28U, the self-cleavage came to 0.0848.

Turning to G10A G28C, the self-cleavage stood at 0.0683.

Take G10A C66U: the self-cleavage was 0.853.

As for G10A C66A, the self-cleavage was 0.82.

For the variant G10A G59C, the self-cleavage was 0.684.

Consider G10A G59A, for which the self-cleavage came to 0.853.

Turning to G10A A45U, the self-cleavage is 0.534.

Regarding G10A A45C, the self-cleavage was 0.219.

On to G10A A45G, for which the self-cleavage worked out at 0.598.

As to G10A C22A, the self-cleavage is 0.0528.

With G10A C22G, the self-cleavage was found to be 0.0171.

As to G10A C22U, the self-cleavage turned out to be 0.157.

As for G10A C24A, the self-cleavage is 0.367.

For U9G U69C, the self-cleavage amounted to 1.25.

Take G10A C62A: the self-cleavage turned out to be 0.673.

With G10A C62U, the self-cleavage worked out at 0.898.

For the variant G10A U46C, the self-cleavage is 0.397.

Regarding G10A U46A, the self-cleavage was 0.506.

For the variant G10A U23A, the self-cleavage is 0.596.

In the case of G10A U23C, the self-cleavage came to 0.554.

On to G10A U23G, for which the self-cleavage came to 0.181.

For G10A C30A, the self-cleavage came out at 0.0913.

On to G10A C30U, for which the self-cleavage came out at 0.248.

Consider U9G U60A, for which the self-cleavage amounted to 0.831.

On to U9G U60C, for which the self-cleavage turned out to be 0.748.

Take G10A C15G: the self-cleavage worked out at 0.166.

For G10A C14U, the self-cleavage amounted to 0.59.

Take U9G G52U: the self-cleavage is 1.03.

In the case of G10A C26U, the self-cleavage is 0.874.

G10A C84U: the self-cleavage worked out at 0.54.

As for G10A A51G, the self-cleavage came to 0.546.

With G10A A51C, the self-cleavage amounted to 0.623.

On to U9G U27A, for which the self-cleavage was 0.437.

As for U9G U27C, the self-cleavage is 0.68.

Turning to U9G U27G, the self-cleavage was determined as 0.935.
